The chains are these.
T1: His6-Vps4 (S. cerevisiae, UniProt P52917 1-437)
T1 sequence: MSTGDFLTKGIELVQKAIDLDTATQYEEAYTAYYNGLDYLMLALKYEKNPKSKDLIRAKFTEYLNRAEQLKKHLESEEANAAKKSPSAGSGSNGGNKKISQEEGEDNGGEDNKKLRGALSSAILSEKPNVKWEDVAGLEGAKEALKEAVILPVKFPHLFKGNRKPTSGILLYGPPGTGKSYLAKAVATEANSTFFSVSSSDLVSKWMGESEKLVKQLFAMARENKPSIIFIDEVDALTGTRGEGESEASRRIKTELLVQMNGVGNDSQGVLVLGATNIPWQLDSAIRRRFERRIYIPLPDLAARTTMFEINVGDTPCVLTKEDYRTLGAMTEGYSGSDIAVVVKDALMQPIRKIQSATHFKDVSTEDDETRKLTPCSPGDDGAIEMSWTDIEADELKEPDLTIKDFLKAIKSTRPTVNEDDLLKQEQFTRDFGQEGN

B1: GST-Bro1V(370-709) (domain or fragment)
chain: DVYEKESIYSEEKATLLRKQVEETETANLEYSSFIEFTNLPRLLSDLEKQFSDGNIFSNTDTQGQLMRDQIQTWCKFIQTNEFRDIEEQMNKIVFKRKQILEILSALPNDQKENVTKLKSSLVAASNSDEKLFACVKPHIVEINLLNDNGKIWKKFDEFNRNTPPQPSLLDIDDTKNDKILELLKQVKGHAEDLRTLKEERSRNLSELRDEINNDDITKLLIINKGKSDVELKDLFEVELEKFEPLSTRIEATIYKQSSMIDDIKAKLDEIFHLSNFKDKSSGEEKFLEDRKNFFDKLQEAVKSFSIFASDLPKGIEFYDSLFNMSRDLAERVRVAKQTE
B2: Bro1 V domain (Bro1V; aa 370-709) (domain or fragment)
chain: DVYEKESIYSEEKATLLRKQVEETETANLEYSSFIEFTNLPRLLSDLEKQFSDGNIFSNTDTQGQLMRDQIQTWCKFIQTNEFRDIEEQMNKIVFKRKQILEILSALPNDQKENVTKLKSSLVAASNSDEKLFACVKPHIVEINLLNDNGKIWKKFDEFNRNTPPQPSLLDIDDTKNDKILELLKQVKGHAEDLRTLKEERSRNLSELRDEINNDDITKLLIINKGKSDVELKDLFEVELEKFEPLSTRIEATIYKQSSMIDDIKAKLDEIFHLSNFKDKSSGEEKFLEDRKNFFDKLQEAVKSFSIFASDLPKGIEFYDSLFNMSRDLAERVRVAKQTE
B3: Bro1V^M9 (T587D) (domain or fragment)
chain: DVYEKESIYSEEKATLLRKQVEETETANLEYSSFIEFTNLPRLLSDLEKQFSDGNIFSNTDTQGQLMRDQIQTWCKFIQTNEFRDIEEQMNKIVFKRKQILEILSALPNDQKENVTKLKSSLVAASNSDEKLFACVKPHIVEINLLNDNGKIWKKFDEFNRNTPPQPSLLDIDDTKNDKILELLKQVKGHAEDLRTLKEERSRNLSELRDEINNDDIDKLLIINKGKSDVELKDLFEVELEKFEPLSTRIEATIYKQSSMIDDIKAKLDEIFHLSNFKDKSSGEEKFLEDRKNFFDKLQEAVKSFSIFASDLPKGIEFYDSLFNMSRDLAERVRVAKQTE
B4: Bro1V^M10 (K481D) (domain or fragment)
chain: DVYEKESIYSEEKATLLRKQVEETETANLEYSSFIEFTNLPRLLSDLEKQFSDGNIFSNTDTQGQLMRDQIQTWCKFIQTNEFRDIEEQMNKIVFKRKQILEILSALPNDQDENVTKLKSSLVAASNSDEKLFACVKPHIVEINLLNDNGKIWKKFDEFNRNTPPQPSLLDIDDTKNDKILELLKQVKGHAEDLRTLKEERSRNLSELRDEINNDDITKLLIINKGKSDVELKDLFEVELEKFEPLSTRIEATIYKQSSMIDDIKAKLDEIFHLSNFKDKSSGEEKFLEDRKNFFDKLQEAVKSFSIFASDLPKGIEFYDSLFNMSRDLAERVRVAKQTE
B5: Bro1V^M4 (V505A, H508A, I512A) (domain or fragment)
chain: DVYEKESIYSEEKATLLRKQVEETETANLEYSSFIEFTNLPRLLSDLEKQFSDGNIFSNTDTQGQLMRDQIQTWCKFIQTNEFRDIEEQMNKIVFKRKQILEILSALPNDQKENVTKLKSSLVAASNSDEKLFACAKPAIVEANLLNDNGKIWKKFDEFNRNTPPQPSLLDIDDTKNDKILELLKQVKGHAEDLRTLKEERSRNLSELRDEINNDDITKLLIINKGKSDVELKDLFEVELEKFEPLSTRIEATIYKQSSMIDDIKAKLDEIFHLSNFKDKSSGEEKFLEDRKNFFDKLQEAVKSFSIFASDLPKGIEFYDSLFNMSRDLAERVRVAKQTE
B6: Bro1V^M8 (E686A, L691D) (domain or fragment, S. cerevisiae, UniProt P48582 370-709, looked up)
chain: DVYEKESIYSEEKATLLRKQVEETETANLEYSSFIEFTNLPRLLSDLEKQFSDGNIFSNTDTQGQLMRDQIQTWCKFIQTNEFRDIEEQMNKIVFKRKQILEILSALPNDQKENVTKLKSSLVAASNSDEKLFACVKPHIVEINLLNDNGKIWKKFDEFNRNTPPQPSLLDIDDTKNDKILELLKQVKGHAEDLRTLKEERSRNLSELRDEINNDDITKLLIINKGKSDVELKDLFEVELEKFEPLSTRIEATIYKQSSMIDDIKAKLDEIFHLSNFKDKSSGEEKFLEDRKNFFDKLQEAVKSFSIFASDLPKGIAFYDSDFNMSRDLAERVRVAKQTE

The first test concerns the target T1, His6-Vps4. As to the kind of experiment: pull-down.
With B1, the binding result is listed as “binds”.

For B2, the binding result is given as “binds”.

As to B3, the binding result is reported as “binds”.

For the molecule B4, the binding result is listed as “binds”.

As for B5, the binding result is listed as “binds”.

The next test has as its target T1, His6-Vps4. As to the kind of experiment: pull-down. The source holds these as a separate data set.
Regarding B6, the binding result was “binds”.

Source of the values: publication PMC8240856 (The Journal of Cell Biology, 2021).
